We go through three substances from patent publication US20240148828A1.

The target in the assay is NKG2D on human γδ T cells (human) (UniProt P26718). The assay can be described thus: cell-based or functional assay.
Chain of NKG2D on human γδ T cells (human) (P26718 whole entry, stated change not applied, the tested form may be a part): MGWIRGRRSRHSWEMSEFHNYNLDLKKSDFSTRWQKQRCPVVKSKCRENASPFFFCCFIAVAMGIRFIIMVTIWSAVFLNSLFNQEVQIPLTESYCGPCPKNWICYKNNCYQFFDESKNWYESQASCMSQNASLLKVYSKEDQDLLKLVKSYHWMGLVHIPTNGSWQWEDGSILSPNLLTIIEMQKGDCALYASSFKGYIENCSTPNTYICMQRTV
“MICA-Fc fusion protein (from UniProt Q29983 24-307)” gave a frequency of Vγ9+ T cells expressing CD107a (plate-bound, together with BTN2A1/3A1-Fc-CD19scFv) of 18 % γδ T cells. As for “MICB-Fc fusion protein (from UniProt Q29980 23-298)”, the figure is 18 % γδ T cells; as for “anti-NKG2D antibody (Clone #149810, R&D Systems)”, 30 % γδ T cells.
